The values below come from publication PMC2198810.

For assay [1], the target named is gelsolin (African green monkey (endogenous in CV1)). The assay can be described thus: co-IP.
Assay [2] has as its target actin (African green monkey (endogenous in CV1)). The assay can be described thus: pull-down.

Regarding actin (natural protein), in assay [1], the actin:gelsolin 35S intensity ratio, PIP5KI-overexpressing cells turned out to be 25.7% and the actin:gelsolin 35S intensity ratio, β-gal cells came to 39.4%. In the case of gelsolin (natural protein), in assay [2], the actin:gelsolin staining intensity ratio, PIP5KI-overexpressing cells stood at 1.25 and the actin:gelsolin staining intensity ratio, β-gal cells is 1.91. Substance profilin (natural protein) returned a decrease in profilin bound to actin, PIP5KI-overexpressing against β-gal cells in assay [2] of 51%.
